We go through three molecules from paper PMC4186791, “The Intrinsically Disordered Regions of the Drosophila melanogaster Hox Protein Ultrabithorax Select Interacting Proteins Based on Partner Topology” (PLoS ONE, 2014).

Assay [1] has as its target T1, UbxIb N103 Pro4 (Drosophila melanogaster, UniProt P83949 1-389, amino acids 2–102 removed (N103) | A226P | Q233P).
T1 construct: Ultrabithorax (Ubx), Drosophila melanogaster, isoform Ib, from which amino acids 2–102 (Region 1) are removed, with the Pro4 mutations; Form is the full-length isoform Ib less the stated deletion; also called UbxIb N103 Pro4 (0, D2,0, D4, S5); source: yeast two-hybrid fusion (pLexA, S. cerevisiae EGY48)
The assay can be described thus: two-hybrid; LexA-Ubx variant (pLexA) and B42-partner (pB42) co-transformed into S. cerevisiae EGY48 carrying p8op-LacZ; blue/white colonies on X-gal and liquid β-galactosidase (ONPG) assay after galactose induction at 30°C, reported in Miller units. The following applies: partners not purified.

Assay [2] addresses T2, UbxIb Δ103–216 (Drosophila melanogaster, UniProt P83949 1-389, Δ103-216).
T2 construct: source: yeast two-hybrid fusion (pLexA, S. cerevisiae EGY48)
The assay is described as above. The note with it: partners not purified.

T1 sequence (P83949 other isoform, or with tags, fused parts or gaps with the stated changes): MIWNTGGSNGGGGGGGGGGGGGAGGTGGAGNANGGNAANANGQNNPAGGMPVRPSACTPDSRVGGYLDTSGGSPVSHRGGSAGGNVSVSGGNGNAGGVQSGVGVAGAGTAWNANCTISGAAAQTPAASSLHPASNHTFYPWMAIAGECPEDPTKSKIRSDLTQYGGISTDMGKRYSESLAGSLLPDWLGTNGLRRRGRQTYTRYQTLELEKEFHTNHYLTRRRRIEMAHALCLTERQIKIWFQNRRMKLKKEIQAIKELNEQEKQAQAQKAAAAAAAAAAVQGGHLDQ
T2 sequence (P83949 other isoform, or with tags, fused parts or gaps Δ103-216 | Δ103-216 | mutant): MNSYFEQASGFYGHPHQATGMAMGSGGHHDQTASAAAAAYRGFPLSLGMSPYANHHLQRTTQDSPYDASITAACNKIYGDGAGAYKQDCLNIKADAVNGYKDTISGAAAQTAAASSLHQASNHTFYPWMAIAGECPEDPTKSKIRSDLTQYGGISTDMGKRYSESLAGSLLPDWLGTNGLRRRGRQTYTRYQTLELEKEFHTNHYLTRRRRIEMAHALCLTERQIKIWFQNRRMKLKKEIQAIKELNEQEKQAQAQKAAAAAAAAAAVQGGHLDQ

B1: 14-3-3ε (natural protein, Drosophila melanogaster, UniProt P92177 1-262, looked up)
chain: MTERENNVYKAKLAEQAERYDEMVEAMKKVASMDVELTVEERNLLSVAYKNVIGARRASWRIITSIEQKEENKGAEEKLEMIKTYRGQVEKELRDICSDILNVLEKHLIPCATSGESKVFYYKMKGDYHRYLAEFATGSDRKDAAENSLIAYKAASDIAMNDLPPTHPIRLGLALNFSVFYYEILNSPDRACRLAKAAFDDAIAELDTLSEESYKDSTLIMQLLRDNLTLWTSDMQAEEVDPNAGDGEPKEQIQDVEDQDVS
notes: 14-3-3ε, Drosophila melanogaster; source: yeast two-hybrid fusion (pB42, S. cerevisiae EGY48)
As to B1, the “percent of reporter signal lost relative to UbxIb Pro4” value in assay [1] and in assay [2] was ≥ 59% throughout.

B2: Ribosomal protein L22 (natural protein)
chain: not shown
notes: Ribosomal protein L22 (RpL22), Drosophila melanogaster; also called RpL22; source: yeast two-hybrid fusion (pB42, S. cerevisiae EGY48)
With B2, the “percent of reporter signal lost relative to UbxIb Pro4” value in assay [1] and in assay [2] was ≥ 59% in each case.

B3: Dishevelled (natural protein, Drosophila melanogaster, UniProt P51140 1-623, looked up)
chain: MDADRGGGQETKVIYHIDDETTPYLVKIPIPSAQVTLRDFKLVLNKQNNNYKYFFKSMDADFGVVKEEIADDSTILPCFNGRVVSWLVSADGTNQSDNCSELPTSECELGMGLTNRKLQQQQQQHQQQQQQQQQQHQQQQQQQQQQVQPVQLAQQQQQQVLHHQKMMGNPLLQPPPLTYQSASVLSSDLDSTSLFGTESELTLDRDMTDYSSVQRLQVRKKPQRRKKRAPSMSRTSSYSSITDSTMSLNIITVSINMEAVNFLGISIVGQSNRGGDGGIYVGSIMKGGAVALDGRIEPGDMILQVNDVNFENMTNDEAVRVLREVVQKPGPIKLVVAKCWDPNPKGYFTIPRTEPVRPIDPGAWVAHTQALTSHDSIIADIAEPIKERLDQNNLEEIVKAMTKPDSGLEIRDRMWLKITIPNAFIGADAVNWVLENVEDVQDRREARRIVSAMLRSNYIKHTVNKLTFSEQCYYVVNEERNPNLLGRGHLHPHQLPHGHGGHALSHADTESITSDIGPLPNPPIYMPYSATYNPSHGYQPIQYGIAERHISSGSSSSDVLTSKDISASQSDITSVIHQANQLTIAAHGSNKSSGSSNRGGGGGGGGGGNNTNDQDVSVFNYVL
notes: Dishevelled (Dsh), Drosophila melanogaster; also called Dsh; source: yeast two-hybrid fusion (pB42, S. cerevisiae EGY48)
Turning to B3, the “percent of reporter signal lost relative to UbxIb Pro4” value in assay [1] and in assay [2] was ≥ 59% throughout.
